Data as given in US20230365714A1 (published 2023).

Legend:
[1] = molecular target: T1, his-tagged ROR2 extracellular domain (ROR2-ECD, G&P Biosciences, cat. no. FCL0192) (human, UniProt Q01974 34-403); test: BLI (Octet HTX), antibody on anti-human IgG Fc sensor, ROR2-ECD as analyte
T1 construct: Bought protein; also called human ROR2-ECD; recombinant human ROR2-ECD; not shown: his tag
Description: Experiments were carried out while shaking at 1,000 RPM at 30° C.
Anti-Human IgG Fc Capture (AHC) biosensors (ForteBio, cat. no. 18-5060) were pre-conditioned by exposure to 10 mM glycine (Riedel-de Haen, cat. no. 15527) buffer pH 1.7 for 5 s, followed by neutralization in Sample Diluent (ForteBio, cat. no. 18-1048) for 5 s; both steps were repeated 5 times. Next, AHC sensors were loaded with the antibody (2.5 μg/mL in Sample diluent) for 600 s. After a baseline measurement in Sample Diluent (300 s), the association (1,000 s) and dissociation (1,000 s) of a commercially available his-tagged ROR2 extracellular domain (ROR2-ECD, G&P Biosciences, cat. no. FCL0192) was determined using a concentration range of 6.25-400 nM with two-fold dilution steps in Sample Diluent. The calculated molecular mass of ROR2 ECD based on their amino acid sequences of 42.7 kDa was used for calculations. For each antibody a reference sensor was used, which was incubated with Sample Diluent instead of antigen. AHC sensors were regenerated by exposure to 10 mM glycine buffer pH 1.7 for 5 s, followed by neutralization in Sample Diluent for 5 s; both steps were repeated twice. Subsequently sensors were loaded again with antibody for the next cycle of kinetics measurements.
The Y-axis was aligned to the last 10 s of the baseline, Interstep Correction alignment to dissociation and Savitzky-Golay filtering were applied.

[2] = molecular target: T2, ROR221 shuffle variant (Ig-like domain and CRD of ROR2, kringle domain of ROR1) (human (ROR1/ROR2 chimera), UniProt Q01973 30-937); test: cell imaging (CellInsight) on CHO cells expressing the shuffle construct
T2 chain: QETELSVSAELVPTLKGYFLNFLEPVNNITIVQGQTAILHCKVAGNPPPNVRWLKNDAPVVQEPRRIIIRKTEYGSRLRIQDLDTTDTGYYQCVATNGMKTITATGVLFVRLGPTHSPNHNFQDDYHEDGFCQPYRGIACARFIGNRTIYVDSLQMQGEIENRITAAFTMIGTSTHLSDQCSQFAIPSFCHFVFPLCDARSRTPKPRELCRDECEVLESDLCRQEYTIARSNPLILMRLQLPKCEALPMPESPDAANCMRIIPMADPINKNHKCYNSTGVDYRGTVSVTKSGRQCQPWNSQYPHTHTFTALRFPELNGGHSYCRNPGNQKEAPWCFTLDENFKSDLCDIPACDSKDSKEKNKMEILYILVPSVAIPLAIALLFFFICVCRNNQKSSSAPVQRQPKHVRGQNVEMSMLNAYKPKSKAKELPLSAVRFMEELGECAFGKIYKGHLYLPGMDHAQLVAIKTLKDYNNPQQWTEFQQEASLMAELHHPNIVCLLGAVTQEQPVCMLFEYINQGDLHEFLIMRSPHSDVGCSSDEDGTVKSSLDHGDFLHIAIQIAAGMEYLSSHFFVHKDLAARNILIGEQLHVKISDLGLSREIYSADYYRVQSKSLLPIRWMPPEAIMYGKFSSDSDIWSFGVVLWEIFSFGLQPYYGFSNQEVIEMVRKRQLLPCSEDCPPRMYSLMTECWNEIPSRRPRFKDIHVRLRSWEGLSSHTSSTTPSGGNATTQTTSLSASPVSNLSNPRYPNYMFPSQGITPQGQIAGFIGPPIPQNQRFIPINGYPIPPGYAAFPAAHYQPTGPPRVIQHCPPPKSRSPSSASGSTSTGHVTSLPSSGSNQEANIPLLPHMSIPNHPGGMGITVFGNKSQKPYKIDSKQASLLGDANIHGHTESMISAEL
Description: (§1) Binding was determined […] using a cell imaging screening system (Celllnsight, Thermo Fisher) as per manufacturer's recommendations. In short, CHO cells expressing shuffle constructs ROR112, ROR121, ROR122, ROR211 or ROR221 (3,000 cells/well in 384-well plates) were incubated with antibody or control samples for 18 h at 37° C./5% CO₂, washed and incubated with an Alexa488-labeled detection antibody for 4 h. Hoechst dye was added and fluorescence images were collected, measuring total spot intensity (RFU).

[3] = molecular target: T3, ROR121 shuffle variant (Ig-like domain of ROR1, CRD of ROR2, kringle domain of ROR1) (human (ROR1/ROR2 chimera), UniProt Q01973 30-937); test: as above
T3 construct: Transiently expressed on CHO cells
T3 chain: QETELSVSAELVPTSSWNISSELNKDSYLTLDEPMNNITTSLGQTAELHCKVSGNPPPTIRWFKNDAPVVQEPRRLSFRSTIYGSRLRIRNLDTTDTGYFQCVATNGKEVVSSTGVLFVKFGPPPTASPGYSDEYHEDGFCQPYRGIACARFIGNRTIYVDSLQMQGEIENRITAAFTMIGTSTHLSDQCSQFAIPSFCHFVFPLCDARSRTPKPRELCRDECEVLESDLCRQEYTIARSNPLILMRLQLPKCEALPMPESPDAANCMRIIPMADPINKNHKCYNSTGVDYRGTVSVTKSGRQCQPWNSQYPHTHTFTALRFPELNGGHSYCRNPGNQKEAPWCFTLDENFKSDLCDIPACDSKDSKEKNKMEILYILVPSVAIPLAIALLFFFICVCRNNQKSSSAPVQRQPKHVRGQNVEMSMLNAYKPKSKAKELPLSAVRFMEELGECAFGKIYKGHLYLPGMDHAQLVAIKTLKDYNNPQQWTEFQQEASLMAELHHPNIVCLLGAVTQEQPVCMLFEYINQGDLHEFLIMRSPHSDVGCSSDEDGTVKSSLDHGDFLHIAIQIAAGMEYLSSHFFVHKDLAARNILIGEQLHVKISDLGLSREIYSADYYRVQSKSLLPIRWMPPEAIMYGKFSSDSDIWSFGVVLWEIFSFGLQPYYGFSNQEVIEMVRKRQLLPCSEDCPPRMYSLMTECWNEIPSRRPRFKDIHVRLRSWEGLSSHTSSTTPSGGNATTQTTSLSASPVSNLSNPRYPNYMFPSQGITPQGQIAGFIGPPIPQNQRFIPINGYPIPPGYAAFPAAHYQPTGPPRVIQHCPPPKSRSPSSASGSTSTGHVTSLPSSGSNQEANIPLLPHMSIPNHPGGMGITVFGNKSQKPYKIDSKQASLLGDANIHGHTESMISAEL
Description: as §1

Kd [1]: 1.6 nM
koff [1]: 0.00095 s⁻¹
kon [1]: 610000 M⁻¹ s⁻¹
RFU (total spot intensity) [2]: 0 RFU
binding result [2]: no binding (tested: RFU = 0)
RFU (total spot intensity) [3]: 0 RFU
binding result [3]: no binding (tested: RFU = 0)
B1: chIgG1-ROR2-A (antibody, V domains shown)
VH: QSVEESGGRLVTPGTPLTLTCTVSGFSLSSYSMSWVRQAPGKGLEWIGVIYVNSKTWYANWAKGRFTISKTSTTVDLKITSPTTEDTATYFCARGDAGYTTNSWLWGPGTLVTVSS
VL: AFELTQTPASVSEPVGGTVTIKCQASESIDNYCSWYQQKPGQPPKLLIYQAFKLASGVPSRFRGSGSGTQFTLTISDLESDDAATYYCQSYSGISTTAFGGGTEVVVK
notes: Rabbit-human chimeric antibody; also called ROR2 specific antibody A
